From the supplement of paper PMC9170038 come the findings set out here.

For this data set, the system named is MS2 coat protein. The data set is described as follows: apparent KD of MS2 coat protein; designed switch direction (-1 OFF switch, 1 ON switch): -1; higher = weaker reporter binding. In outline:
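Apparent KD, taken as the median over clusters for each design, was obtained by curve-fitting normalised cluster fluorescence. Designed RNA switches had been transcribed on Illumina chips by stalled E. coli RNA polymerase and titrated with SNAP-549-labelled MS2 coat protein, doubling from 0.7 or 1.5 nM to 3 µM.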

[1] abbreviates: input ligand: microRNA oligo, concentration not stated.
Setting [2] is: Eterna round: R95, input ligand: FMN 200 uM.
The mark [3] stands for this setting: Eterna round: R95, input ligand: microRNA oligo, concentration not stated.
[4] abbreviates: Eterna round: R95, input ligand: none.

As for “ACAAACAGCUGAGGAUAUCACGAGCAAGGCCAGUGAGAAGGUAGCUCAAACAUGAGGAUCACCCAUGUUAAACUUCCUCAUGCG [Raisorar] (Eterna round: R96, puzzle: Exclusion NG 1)”, the “apparent KD of MS2 coat protein” value (input ligand: FMN 200 uM) was 13.7 nM, the “apparent KD of MS2 coat protein” value under setting [1] is 10.4 nM and the “apparent KD of MS2 coat protein” value (input ligand: none) came out at 17.7 nM.

Consider “ACAAGCGCGAAAGUCUUAUACAUGAGGAUCACCCAUGUUCUCAAGGUCUUAUGUACUGACACGAUUACUCGUCUUAU [AK-miRNA-r3-4] (Eterna round: R97, puzzle: Sensor, turn-off variant 1)”, for which the “apparent KD of MS2 coat protein” value by setting is: (input ligand: FMN 200 uM) 117 nM; (input ligand: none) 112 nM.

“ACAAGCUAAGUGCUCGGUCCGGGAGACACGUGAUCAGCGACAUGAGGAUCACCCAUGUAAUAGGAGCUUAAAACGUU [solution 46] (Eterna round: R96, puzzle: Sensor v2, turn-off variant 2)”: the “apparent KD of MS2 coat protein” value (input ligand: FMN 200 uM) came to 15 nM, the “apparent KD of MS2 coat protein” value under setting [1] was found to be 20.1 nM and the “apparent KD of MS2 coat protein” value (input ligand: none) is 19.7 nM.

As to “ACAAGCUCUGUGGGUGGGUACAUGAGGAUCACCCAUGUUUUGCUCGUCUUGUGGGCCCGGGCCCGCGGCCCGGGCCC [-41.4, -69.7, A 12%] (Eterna round: R97, puzzle: Sensor, turn-off variant 1)”, the “apparent KD of MS2 coat protein” value runs as follows: (input ligand: FMN 200 uM) 604 nM; (input ligand: none) 1180 nM.

For the sequence “ACAAGCUUAGGUUUUCAUAACAUGAGGAUCACCCAUGUUCGUCUUAUAAAAAUAAAAAUAAAAAACAAAAAAUAAAA [Sensor V2: 66] (Eterna round: R96, puzzle: Sensor v2, turn-off variant)”, the “apparent KD of MS2 coat protein” value runs as follows: (input ligand: FMN 200 uM) 39.1 nM; under setting [1], 117 nM; (input ligand: none) 41.2 nM.

Regarding “ACAAGCUUGUAAUGAUUGAACAUGAGGAUCACCCAUGUAAAUGGAAGAACCAAUUUGAUAAGAUAUACUCGUCUUAU [JR_STOV1_Sub007] (Eterna round: R97, puzzle: Sensor, turn-off variant 1)”, the “apparent KD of MS2 coat protein” value by setting is: (input ligand: FMN 200 uM) 57.8 nM; (input ligand: none) 59.1 nM.

Take “ACAAGCUUUGAGUUCGUCUUAUACACUCCUAAUAAGAAAACAUGAGGAUCACCCAUGUAAGAAAUAAGAACUCAUGU [Sesor Array 3 - Jieux - Sensor v3, turn-off variant 2] (puzzle: Sensor v3, turn-off variant 2)”: the “apparent KD of MS2 coat protein” value was determined as 25.5 nM under setting [2], 291 nM under setting [3] and 27.8 nM under setting [4].

On to “ACAAGCUUUUGCUCGUCUUACAUGAGGAUCACCCAUGUCGGGUGCUUGCUUACGUCCAGCAUCUGGACCGUAGCAGU [-24.6, -43.1 kcal, 19% A] (Eterna round: R97, puzzle: Sensor, turn-off variant 1)”, for which the “apparent KD of MS2 coat protein” value reads like this: (input ligand: FMN 200 uM) 142 nM; (input ligand: none) 165 nM.

Turning to “ACAAGCUUUUUCAUAUCUUACAUGAGGAUCACCCAUGUUUUUGCAAUUAUGUUUGGGCUCUUUUGUGCUCGUCUUAU [JR_STOV1_Sub049] (Eterna round: R97, puzzle: Sensor, turn-off variant 1)”, the “apparent KD of MS2 coat protein” value (input ligand: FMN 200 uM) stood at 14.9 nM and the “apparent KD of MS2 coat protein” value (input ligand: none) came to 15.4 nM.

Consider “ACAAGCUUUUUGUUCGUCUUAUAAAAUCCUAAGAGGAUAACAUGAGGAUCACCCAUGUAACAAAGACGGACUCAUGU [Sesor Array 13 - Jieux - Sensor v3, turn-off variant 2] (puzzle: Sensor v3, turn-off variant 2)”, for which the “apparent KD of MS2 coat protein” value by setting is: under setting [2], 11.7 nM; under setting [3], 120 nM; under setting [4], 9.57 nM.

For the sequence “ACAAGCUUUUUGUUCGUCUUAUAAUAUUAAAUAAAGAUAACAUGAGGAUCACCCAUGUAACAAAGACGGACUCAUGU [Sesor Array 17 - Jieux - Sensor v3, turn-off variant 2] (puzzle: Sensor v3, turn-off variant 2)”, the “apparent KD of MS2 coat protein” value came out at 16.2 nM under setting [2], 200 nM under setting [3] and 13.8 nM under setting [4].

“ACACAAAGCUAGGAUAUCGAGGCAUCUUCGGCCCGAGAAGGAGCCACAUGAGGAUCACCCAUGUGGUGAUCCUG [eternacac ex6r4 sub4] (Eterna round: R97, puzzle: Exclusion 6)”: the “apparent KD of MS2 coat protein” value runs as follows: (input ligand: FMN 200 uM) 100 nM; (input ligand: none) 121 nM.

As for “ACACAGAUAGGAUAUCGGACUAUGGACAUGAGGAUCACCCAUGUGCGUCCAAUGUCCGACCGAGAAGGAUCAACAG [Teesvete] (puzzle: Exclusion 5)”, the “apparent KD of MS2 coat protein” value was found to be 146 nM under setting [2], 51.8 nM under setting [3] and 77 nM under setting [4].

With “ACAGUGCGAGGAUAUACAUGAGGAUCACCCAUGUGAGAGAAAUAAGUGAGGAAGAAAAGUAGAAGGCGCGUUGA [Mat - Exclusion 3 - Mod of Salish D70] (puzzle: Exclusion 3)”, the “apparent KD of MS2 coat protein” value under setting [3] came out at 45.8 nM.

As for “ACAGUUUUGCAAGGAUAUCGUUUUAGUUUAUUACGAGAAGGUGCUUUAGUUAUUUCUUUGGGUUGACAUGAGGAUCACCCAUGU [JR_ExcNG1_Sub057] (Eterna round: R96, puzzle: Exclusion NG 1)”, the “apparent KD of MS2 coat protein” value (input ligand: FMN 200 uM) is 136 nM, the “apparent KD of MS2 coat protein” value under setting [1] is 144 nM and the “apparent KD of MS2 coat protein” value (input ligand: none) is 148 nM.

As for “ACAUGACAGCUAGGAUAUAAAUGACAUGAGGAUCACCCAUGUUGUCCCAUGUUGAGGAUCACCCAUUAGAAGGAGCCACCCAUG [Exclusion NG2 S1] (Eterna round: R96, puzzle: Exclusion NG 2)”, the “apparent KD of MS2 coat protein” value (input ligand: FMN 200 uM) came out at 92.8 nM, the “apparent KD of MS2 coat protein” value under setting [1] was determined as 49.2 nM and the “apparent KD of MS2 coat protein” value (input ligand: none) stood at 85.3 nM.

On to “ACAUGACUGCUAGGAUAUAGAUGACAUGAGGAUCACCCAUGUUGUCCCAUGUUUAUGGAAACGGACUAGAAGGAGUAGUAUAUG [Ex NG2 #14] (Eterna round: R96, puzzle: Exclusion NG 2)”, for which the “apparent KD of MS2 coat protein” value is, setting by setting: (input ligand: FMN 200 uM) 30.7 nM; under setting [1], 23.4 nM; (input ligand: none) 27.9 nM.

For the sequence “ACAUGAGGAUCACCCAUGUAAUCAUGAUGGCUGAUGUAGAGCUAGGAUAUGAGUGGCUUUCUAUCUCAGAAGGAGCUAGACUGG [Deportation 41 - Jieux - Exclusion NG 3] (Eterna round: R96, puzzle: Exclusion NG 3)”, the “apparent KD of MS2 coat protein” value runs as follows: (input ligand: FMN 200 uM) 29.3 nM; under setting [1], 18.1 nM; (input ligand: none) 34.9 nM.

As to “ACAUGAGGAUCACCCAUGUAAUCAUGAUGGCUGAUGUAGAGGUAGGAUAUGUGUGGCUUUCUAUCACAGAAGGACCAAGACUGG [Deportation 38 - Jieux - Exclusion NG 3] (Eterna round: R96, puzzle: Exclusion NG 3)”, the “apparent KD of MS2 coat protein” value is, setting by setting: (input ligand: FMN 200 uM) 46.3 nM; under setting [1], 46.6 nM; (input ligand: none) 59.8 nM.

For the sequence “ACAUGAGGAUCACCCAUGUCCGGCUGGUCCGUCUCGGCUGUCGAGGAUAUAGCUCGGUGUCCGCGCUAGAAGGUGGGAGCCGGC [Aenatbe mod 72] (Eterna round: R96, puzzle: Exclusion NG 3)”, the “apparent KD of MS2 coat protein” value (input ligand: FMN 200 uM) amounted to 212 nM, the “apparent KD of MS2 coat protein” value under setting [1] came out at 134 nM and the “apparent KD of MS2 coat protein” value (input ligand: none) came to 217 nM.

As to “ACAUGAGGAUCACCCAUGUCCGGCUGGUCCGUCUCGGCUGUCGAGGAUAUGGCUCGGUGUCCGCGCUAGAAGGUGGGAGCCGGA [Aenatbe mod 75] (Eterna round: R96, puzzle: Exclusion NG 3)”, the “apparent KD of MS2 coat protein” value (input ligand: FMN 200 uM) turned out to be 56.7 nM, the “apparent KD of MS2 coat protein” value under setting [1] came to 45.1 nM and the “apparent KD of MS2 coat protein” value (input ligand: none) stood at 93.5 nM.

As for “ACAUGAGGAUCACCCAUGUCCGGCUGGUCCGUCUCGGCUGUCGAGGAUAUGGCUCGGUGUCCGCGCUAGAAGGUGGGAGCCGGC [Aenatbe mod 73] (Eterna round: R96, puzzle: Exclusion NG 3)”, the “apparent KD of MS2 coat protein” value reads like this: (input ligand: FMN 200 uM) 332 nM; under setting [1], 127 nM; (input ligand: none) 266 nM.

For “ACAUGAGGAUCACCCAUGUCCGGCUGGUCUGUUCCGGCUGUCGAGGAUAUAGUCCGGUGUUCGCGCUAGAAGGUGAGGGCUGGA [Aenatbe mod 45] (Eterna round: R96, puzzle: Exclusion NG 3)”, the “apparent KD of MS2 coat protein” value was 78.9 nM (input ligand: FMN 200 uM), 48.6 nM under setting [1] and 70.1 nM (input ligand: none).

In the case of “ACAUGAGGAUCACCCAUGUCCGUCUGAUCUGUCUCGGCUGUCGAGGAUAUAGCCCGGUAUCCGCGCUAGAAGGUGGGAGUCGGC [Aenatbe mod 99] (Eterna round: R96, puzzle: Exclusion NG 3)”, the “apparent KD of MS2 coat protein” value reads like this: (input ligand: FMN 200 uM) 29.8 nM; under setting [1], 25.3 nM; (input ligand: none) 35.7 nM.

On to “ACAUGAGGAUCACCCAUGUCUGGCUGGUCCGUCUCGGCUGUCGAGGAUAUAGCUCGGUGUCCGCGCUAGAAGGCGGGAGCUGGC [Aenatbe mod 81] (Eterna round: R96, puzzle: Exclusion NG 3)”, for which the “apparent KD of MS2 coat protein” value runs as follows: (input ligand: FMN 200 uM) 135 nM; under setting [1], 52.2 nM; (input ligand: none) 81 nM.

Turning to “ACAUGAGGAUCACCCAUGUGAAAACAAUGGCUGACACAGAGAUAGGAUAUAUGUGCAUAUCAAACAUAGAAGGGUCAUUACUGG [Deportation 86 - Jieux - Exclusion NG 3] (Eterna round: R96, puzzle: Exclusion NG 3)”, the “apparent KD of MS2 coat protein” value by setting is: (input ligand: FMN 200 uM) 42.6 nM; under setting [1], 40.2 nM; (input ligand: none) 46.2 nM.

Consider “ACAUGAGGAUCACCCAUGUGAAAACAAUGGCUGACUAAGAGAUAGGAUAUAUGUGCAUAUCAAACAUAGAAGGGUCAUUACUGG [Deportation 88 - Jieux - Exclusion NG 3] (Eterna round: R96, puzzle: Exclusion NG 3)”, for which the “apparent KD of MS2 coat protein” value is 36.1 nM (input ligand: FMN 200 uM), 25.3 nM under setting [1] and 37.2 nM (input ligand: none).
